Test results reported in the DeepSol protein solubility set.

experiment: soluble on expression in E. coli; label from the status in PepcDB or PDB records

**Q.** Which “soluble on expression in E. coli” value does the source give for “MLPAVDDRCSGGYAGDVVADETIIDLAGPSEGLGVRPDKQRAAAYAGAYYIRDKTHQLGTGEKMREVTKRGFGIGVTAVSRVGSADDLYSVSPVITAISIDKPSPGSTVALGRALQMHQANGFAASVKTKANARLPYLCVDMGYSVRPDFTTVVHDHGFAPVMRYPVSRQTVWASEKPEFGSQSPGPVQINSAFYCPAALPLARQRRLVRRLNELLDEQDGFEAHDQALQKLLPLLMGTNSRPLKFVSKRKRSPETIPTYQIDLVCPAVQGRVKCPLKPESLIIAFDQPEVKPTWSADRYRCCSKSQIRHTYSSEQWKLAQWGMVPGSWEHAIYYEAARSLTEQRFSIMKSQHLSGREHLKWSPRREPMISVIIALWIAATNLAIQDSHVAKMPRPSSIKKQKRRLERDLGRALMSTPPRT” here?
**A.** not soluble

**Q.** For “KRSNSIKRNPNAPVVRRGWLYKQDSTGMKLWKKRWFVLSDLCLFYYRDEKEEGILGSILLPSFQIALLTSEDHINRKYAFKAAHPNMRTYYFCTDTGKEMELWMKAMLDAALVQT”, which “soluble on expression in E. coli” value is on record?
**A.** soluble

**Q.** Which “soluble on expression in E. coli” value does the source give for “IDEKPSDLLLDRIESRFNFDVPRGEGHNTVQAIKAMEEGQAKVFIGLGGNFAQATPDTERTHNAMRNCNLTVHISTKLNRSHLVTGKDALILPCLGRTEIDQQATGPQGVTVEDTFSMVHISFGQLKPRSEHLRSEPAIIAGIANATLGAKPIDWLWAIEDYDRIRDLIADTIPGFTDFNHKLKHPGGFHLVNPAAERRWNTPSGKAQFSSSELPKQLISEAILEKGQKPDLILQTMRSHDQYNTTLYGLNDRYRGVFGMREVLFINEADIRKLGFEPGDKVDMVSLWEDGVERRVSGFTLVAYDVPAGQAAAYYPETNPLVPLDSYGDRTFTPTSKFIAIKLEKSTSNKIALVETE” here?
**A.** not soluble

**Q.** For “MPNLPALPDMGLPVVTSDLTATLLPGVASPIVPGQPIEQAFSSILISMMKSDQAIEDDTENPAPVSIDALIAGMIAAPANPPQLVPSQPAPDALDTPNAPDAPAEELLSMLATSMMPNTGQPVTDEPVTFPAGGLASATPPNLPSDSGRHAADPLQTTSQAHAAPLPAELPAGNISTSTPFPAPVNSFNQAIDAANFADSGKSLPPSMTSVPVTPVAAHTSSTPLTDIAADTTANDAPAIAAEFGQPDWPEEFGRKITWLATQRMQAAELKLHPAHLGPIEISLQLSDDQRLTAQFISHHPAVREAIEANLPRLREIMAENGITLADTSVSADTPGQQAENRQGSPFRRPAAGDHSTYDSTSPQTPALQATRRSSLIDTFA”, which “soluble on expression in E. coli” value is on record?
**A.** not soluble

**Q.** For “MGHHHHHHSHMSLDINQIALHQLIKRDEQNLELVLRDSLLEPTTTVVEMVAELHRVYSAKNKAYGLFNEESELAQALRLQRQGEEDFLAFSRAATGRLRDELAKYPFADGGIVLFCHYRYLAVEYLLVTVLNNLSSMRVNENLDINPTHYLDINHADIVARIDLTEWETNPQSTRYLTFLKGRVGRKVADFFMDFLGASEGLNAKAQNRGLLQAVDDFTAEAQLDKAERQNVRQQVYSYCNEQLQAGEEIELESLSKELSGVSEVSFSEFTAEKGYELEESFPADRSTLRQLTKYAGSGGGLTINFDAMLLGERIFWDPATDTLTIKGTPPNLRDQLQRRTSGGK”, which “soluble on expression in E. coli” value is on record?
**A.** soluble

**Q.** For “MEVKAFLERETLDRTLGVRYLKAEKDEVVAELVVTPKVHQPFGFLHGGATVALAESVASVGGFLNCPPGHAAFGLEINCNHLRKKREGTIRAVGRPLHVGRTTQVWEVKVYDEEGRLVAASRCTLAVVPLEPAKEPA”, which “soluble on expression in E. coli” value is on record?
**A.** soluble

**Q.** With “MSLASVWKRLQRVGKHASKFQFVASYQELMVECTKKWQPDKLVVVWTRRSRRKSSKAHSWQPGIKNPYRGVVVWPVPENIEITVTLFKDPHAEEFEDKEWTFVIENESPSGRRKALATSSINMKQYASPMPTQTDVKLKFKPLSKKVVSATLQFSLSCIFLREGKATDEDMQSLASLMSMKQADIGNLDDFEEDNEDDDENRVNQEEKAAKITEGHHHHHH” as the sequence, how does the “soluble on expression in E. coli” value read?
**A.** not soluble

**Q.** With “MKEIKVNELTDNLFETISKEWMLVTAGTKDKFNTMTANWGGAGFLWNRPVAFIFIRPERYTFDFIEQNDYLTLSFLGEEHKEIHKICGSKSGRDMDKVKATGLSPLFTENGSITFEQARLTFECKKLYADLIKPGNFIDKSITDRWYGESHGGFHKMYVVEIVNVLSR” as the sequence, how does the “soluble on expression in E. coli” value read?
**A.** soluble

**Q.** For “MGSDKIHHHHHHMDKNPLVYEYSIGKRKPYDYDYGNRQGNQNAGCPFCDVRHLVNIFEKDGDKIWLKNKYPTLQDTDQTILIESSDHQGDISTYTREDNQELMKFALKCFQKMYNSGRYKSVLWYKNFGPKSDGSLTHPHMQIVGLYHKDGYHDIGPDNFKGFEVGKSGSVEMNLSAYPVQGYQEVNIITHDNTNLGTWADLIQKGTQYVRSVLSHGVDSYNLFFYPINDGQGTCCKIIPRFYASPYFVGYKISQVDDSDTLKWEAERLKGFVNGGILH”, which “soluble on expression in E. coli” value is on record?
**A.** not soluble

**Q.** With “MIDDLLNFFNSFNVVKNYKLINQLKNEVDTLKSRLDIPRELLDGFYADRNSREYREVYEKDAPLVTVCIGTYNRGKLLVERSVRSVLEQSYGNIELIVVGDCCTDDTPRLVQGITDPRFRFINLPERGNYPENPLHRWCVAGTVPFNYALSQARGDFITHLDDDDEFVPDRIEKLVKFIQREKADLVWHPFWYERSNGRWAMRKAQEFSGGKVTTSSIFYHRWFTAVPWDIEAYRYQEPGDWNRLRKIKYLGARVARYPEPLLRHYCERNQESLSSRTIQTRNTKLEHHHHHH” as the sequence, how does the “soluble on expression in E. coli” value read?
**A.** not soluble

**Q.** With “MGSDKIHHHHHHQSFTPGEIWPDNHQVHINAHGGGILYENGTYYWFGEHKTEGEAGNLANVGVHCYSSDDLYHWKDCGIALSVIENDPGHPISKGCILERPKVIYNPLTKKYVMWFHLEPKGAGYSGALSGIALSDRVTGPYTFLKAVRPNAGSWPINVLPIHKTTRRPSAEEERQCTGGSLPAHPDSLNILGRDMEQGQMARDMNLFVDDDGKAYHIYSSEENSTLHIAELDPTYTGYTGKYIRVFINRFMEAPAMFKKDGNYYLIMSGCSGWNPNAARSAIASSIWGEWKELGNPCIGQDADLTFHSQSTYILPVQGKKNQFIYMGDRWTPQNAIDGRYIWLPIHFEGPKPIIEWKDSWTLD” as the sequence, how does the “soluble on expression in E. coli” value read?
**A.** not soluble

**Q.** For “MPVMDRAAMRTMATLQPSCMRWLCTTPSILDAAKAGWPISWAATPDSPATVTIRQFQASTCCRKKTFDVVVNTDVLEHVPEAELDCVLRDFRKLSTNAIIIPHLAKATRILPNGENAHCTIKTPSEWAQVFKRHYAHVYELPHHSAVHALFLCGDQERDVTALRGILEQYVAAKNEVRHHLLPLGKRIEKAIRLIRGKDINRLEHHHHHH”, which “soluble on expression in E. coli” value is on record?
**A.** soluble

**Q.** With “GPGSMIFFFTLNLHDRSSLDLRVEFLFSCSDSSDSVAQHLRAIGMRGQLVQKGAATLYAGPKIASYTDACEAPVAMWEGAIPLKHERVLNGGVATRVVKKTYSHPPEIHPTNLSFNDIDSMYCLGNDELIKYFPEGVGGKMMQLMPPGHPRGFLYRKQSHLLNCFIDKLPFWQSKEKALRSLTNGRPGFIMDGPTGCGKSALLCQAVHYARSRDIITLYIANAKAWTHGEWCWPSTILPGFFDAPDAAREFLRTVAEANGSLLQAWELRVTPQDLPLEQGEKQPRSLYDLCEWGHRAVAPASIDRQSVCIKFFFDEIRAEKTKPIIIAVDGWNLFSHETHFRYPHPDFLRTLTTLNDGLTDVDLYPQELPRIPASRLSFVRGLNKLILSKQDPNKFFITCTTRDFKPFDGVSGFADVENDRFKNSLDEYAPYDPEKDSFFHPMQVENFTEYEYRAFLRFAINSGELAGLGWGPMWHYSSDFERKLYKIDFMSDRNPQRVVDHYHQELVWRYEYKRTRQKQYLLARRKMWQGAEVSNPLRNGK” as the sequence, how does the “soluble on expression in E. coli” value read?
**A.** not soluble

**Q.** For “MTIDKLKLNTINLRNTFSNRSKPPISIITSTNKPKYFRNTIKNYTRLNYRYKELILIFNIDNIDIDYYKSYAEKIPNVMVFQLNECYSLGYCLNFGVNQSKYNYIAKMDDDDYYGPNYLTDEINAFNYTDAKIIGKCKYFTYFEDTRDLSINNYSQSYDYTNFIAGGTFLIKKELFKTYKFRDVNMSEDAGFLDDCSSHGIKIYSIDPFNYVYMRHKSLNEHTWKIPTTALKKQYFHFYKTTNYIPIVKILEHHHHHH”, which “soluble on expression in E. coli” value is on record?
**A.** not soluble

**Q.** With “MPIVYYDGNCIYCYNYVIWLIQHDLPRNYQFATLKGEVGQQFFKQHPEAANKNSVILQKGDRIYFESQAIIKLITALPNRTKLLGVGLWLVPKPVRNFGYRMFANNRNRMWKTTWHQPNDYEKSFFLDDNAKVKLTD” as the sequence, how does the “soluble on expression in E. coli” value read?
**A.** not soluble

**Q.** For “MASMTGGQQMGRGSEEPNPNDGYDYMQHGFDWPGLQEGGTTKYPACSGSNQSPIDINTNQLMEPSSRSGTSAVSLNGLNVDGAQADGITLTNAKVDLEQGMKVTFDQPAANLPTIEIGGTTKSFVPIQFHFHHFLSEHTINGIHYPLELHIVMQEQDPADVATAQLAVIGIMYKYSENGDAFLNSLQTQIEGKIGDGTASYGDTGVSIDNINVKTQLLPSSLKYAGYDGSLTTPGCDERVKWHVFTTPREVTREQMKLFVDVTMGAHAGADVVNNRMIQDLGDREVYKYNY”, which “soluble on expression in E. coli” value is on record?
**A.** soluble

**Q.** For “MFYRDVLIESRERNIFMSKELQIRNSTVDFLVFTRDAREDGIEVRVQNGDVWLTQKAISQLFDVDRSVVTKHLSNIFKEGELDENSTCANFAQVADNGKTYNYKFYSLAAIIAVGYRINSERAMQFRTWATKVLDTFTKQGYVLDKSRLINGQIFDEDYFEHLIAEIQEIRASERRFYQKITDIYATAVDYDKNSQVTREFYATVQNKMHYAVHGNTAAEVIVARANHNKKHMGLKSWKNAPDGKIVKTDVSIAKNYLEKEELAELNEIVTMYLDYATRQARRHIPMTMEDWKTKLDAFLRFNDAEVLQDKGKVTAAIAKEFAESEFEKYRVIQDSLYESDFDKLMNDMEKNDAIH”, which “soluble on expression in E. coli” value is on record?
**A.** not soluble

**Q.** For “MAHHHHHHMSTMDVPGTAIEQYFNQLIQMRLLTQVIVSDTRGDTTVACLMGLEHGGDAVVSSSEDTYGVAESIMESNVALSGARCFQNLDQLNLGVPLYVSFQYHDDVVVQTLDGCCMLTLIGSRSQGHFVGGLLTLLDQIRSCEAYQELLTQTQLCFR”, which “soluble on expression in E. coli” value is on record?
**A.** not soluble

**Q.** For “PRNQMPRIHASSGTTGKPTVVGYTKTDLDNWANLMARSMVGAGASPDDIVHNAYGYGLFTGGLGAHYGAERLGCTVVPASGGGTERQVQLIVDFGANVLCCTPSYALNIAEVAEQMGVSLKDAPLRVGLFGAEPWSDAMRRDLEARLGIKAVDVYGLSEIMGPGVACECH”, which “soluble on expression in E. coli” value is on record?
**A.** not soluble

**Q.** With “MGSDKIHHHHHHLNQERFDYRTGILASPSEVDAAEWNALLAQQPQPTPFLRHEFLSALHATRCAVADTGWAPQFVTLTDPRTDKLVAAAPVYLKGHSYGEYVFDWAWADAYKRNGLPYYPKLLCAVPFTPVQGNRLLSADTHALRHLAATLMAFAEQADVSSLHVLFPTETEANALTEMGMMQREGVQFHWLNDGYRDFDDFLSTLEQKKRKNIRAERRKVHEAGVTMRRIRGEDIQDADWRFFSKCYRQTYREHFSSPYLNLDFFRMIGESMPENLLLVIAEYEGKPIASSLVVYQRDAKTGGTLYGRYWGALEHVPCLHFETAYYQPLEFCIEEKLGAFEGGAQGEHKMARGFLPTVTRSAHWLAHPAFADAVGHFLDNEKNSIHAYVDELREHNPFKG” as the sequence, how does the “soluble on expression in E. coli” value read?
**A.** not soluble

**Q.** For “MENMLLWLIFFTPGWTLIDGSEMEWDFMWHLRKVPRIVSERTFHLTSPAFEADAKMMVNTVCGIECQKELPTPSLSELEDYLSYETVFENGTRTLTRVKVQDLVLEPTQNITTKGVSVRRKRQVYGTDSRFSILDKRFLTNFPFSTAVKLSTGCSGILISPQHVLTAAHCVHDGKDYVKGSKKLRVGLLKMRNKSGGKKRRGSKRSRREASGGDQREGTREHLQERAKGGRRRKKSGRGQRIAEGRPSFQWTRVKNTHIPKGWARGGMGDATLDYDYALLELKRAHKKKYMELGISPTIKKMPGGMIHFSGFDNDRADQLVYRFCSVSDESNDLLYQYCDAESGSTGSGVYLRLKDPDKKNWKRKIIAVYSGHQWVDVHGVQKDYNVAVRITPLKYAQICLWIHGNDANCAYG”, which “soluble on expression in E. coli” value is on record?
**A.** not soluble

**Q.** For “MGWKMQATVTEIGKHAIDDSEKMIILFGETATDTLKQHAVIQSFPEKDQVTLAEGDHLKIGDTNYTITKVGSFANSNLQSIAHSTLIFADAPTDEDDVIRNGVYLTPHQLPKITIGTTIDYLVNGA”, which “soluble on expression in E. coli” value is on record?
**A.** soluble
